Source: patent US20110059142A1, “ENCAPSULATION OF BIOLOGICALLY ACTIVE AGENTS” (priority 2008, published 2011)

Assay: In vivo evaluation of HIP-PBCA nanoparticle delivery of dalargin to the brain, intravenous
Settings: mouse, i.v., 20 minutes following injection, LC-MS-MS
Experimental: The ability of the HIP-PBCA nanoparticles to deliver their peptide load to the brain was determined in vivo in the mouse model. HIP-PBCA nanoparticles containing encapsulated dalargin using the HIP process were compared to HIP-PBCA nanoparticles that had had the peptide adsorbed onto the particle surface as reported by Kreuter et al. The nanoparticles were prepared for brain delivery via the intravenous route by coating their surface with polysorbate 80 surfactant. Briefly, the nanoparticles were incubated in PBS containing 1% w/v surfactant for 30 minutes prior to injection. The surfactant has been reported in the literature to indirectly target the nanoparticles to the brain by promoting adsorption of serum apolipoproteins onto the nanoparticle surface. This allows the particles to bind to the apolipoprotein receptor on the blood brain barrier and transcytose to reach the brain. The following formulations were compared: • 1. HIP-PBCA nanoparticles alone (5:1 HIP content) • 2. HIP-PBCA nanoparticles alone (10:1 HIP content) • 3. Dalargin in solution (2.0 mg/kg) • 4. HIP-PBCA nanoparticles with dalargin adsorbed onto the surface (2.0 mg/kg total dose used in formulation) • 5. […]
The mice were sacrificed at 20 minutes following injection, and the brains and blood samples collected and analysed for the presence of peptide by LC-MS-MS. […]

In the case of “dalargin (YAGFLR; Humanised sequence of mus musculus and homo sapiens) [9: YAGFLR]”, the “Dalargin levels in the brain (detectability)” value is reported as “detectable in the brain only when encapsulated within the particles using the HIP process”.
